These results are taken from article PMC13100509, “A milestone in C4 carbon concentration mechanism evolution: structural remodeling of NADP-malic enzyme in Poaceae” (Molecular Biology and Evolution, 2026).

Several values for one entry are separate records, joined by “and”; a condition that tells them apart may be missing. Equal values may be shown once.

By stoichiometry N is commonly meant the number of molecules, sites or subunits per partner or assembly.

For data set [1], the target named is Cyt1-NADP-ME from maize extracts (maize (endogenous in maize etiolated leaves and roots)). The experiment in a line: native gel or EMSA; native PAGE (7%) of maize extracts of etiolated leaves and roots; in-gel NADP-ME activity assay, active bands excised and identified by mass spectrometry; mobility compared with the recombinant proteins. For orientation: Mobility shift assays separate free from complexed probe on a gel.

Data set [2] concerns the target Cyt2-NADP-ME from maize extracts (maize (endogenous in maize etiolated leaves and roots)). Described as above.
Data set [3] concerns the target maize nonC4-NADP-malic enzyme, recombinant wild type (maize (Zea mays)). Nature of the data set: AUC; sedimentation velocity of recombinant proteins; 20 mM Tris-HCl pH 7.0 or 8.0, 5 mM MgCl2; 1.1 mg/ml (16 uM); 20 °C, 35,000 rpm; c(s) model in SEDFIT; self-association, dimers and tetramers.
Data set [4] has the same target. The experiment in a line: cryo-EM structure; single-particle cryo-EM of His-tagged proteins, 0.2 to 0.5 mg/ml, 20 mM Tris-HCl, 5 mM MgCl2, 40 mM pyruvate, 2 mM NADP, pH 8.0; oligomeric state from the numbers of particles.
Data set [5] has the same target. The experiment in a line: native gel or EMSA; native PAGE (6% or 7%) of purified recombinant proteins, 100 V, 4 °C; Coomassie staining or in-gel NADP-ME activity assay; oligomeric state from mobility against native markers.
Data set [6] has the same target. The description is as above. The source holds these as a separate data set.
The target in data set [7] is nonC4I148F mutant of maize nonC4-NADP-ME (maize (Zea mays)). The data set is described as above.
In data set [8] the target is nonC4N172D mutant of maize nonC4-NADP-ME (maize (Zea mays)). The description is as above.
Data set [9] concerns the target nonC4R208G mutant of maize nonC4-NADP-ME (maize (Zea mays)). The data set is described as above.
Data set [10] concerns the target nonC4Δ15 with I148F (maize (Zea mays)). The description is as above.
For data set [11], the target named is nonC4Δ15 with N172D (maize (Zea mays)). The data set is described as above.
Data set [12] concerns the target nonC4Δ15 with R171T (maize (Zea mays)). The data set is described as above.
For data set [13], the target named is nonC4Δ15 with R208G (maize (Zea mays)). Described as above.
Data set [14] concerns the molecule itself. The experiment in a line: AUC; sedimentation velocity of recombinant proteins; 20 mM Tris-HCl pH 7.0 or 8.0, 5 mM MgCl2; 1.1 mg/ml (16 uM); 20 °C, 35,000 rpm; c(s) model in SEDFIT; self-association, dimers and tetramers.
Data set [15] deals with the molecule itself. The experiment in a line: native gel or EMSA; native PAGE (7%) of maize extracts of etiolated leaves and roots; in-gel NADP-ME activity assay, active bands excised and identified by mass spectrometry; mobility compared with the recombinant proteins.

For the molecule “Cyt1-NADP-ME from maize extracts (enzyme)”, in [1], the stoichiometry N worked out at 4. Regarding “Cyt2-NADP-ME from maize extracts (enzyme)”, in [2], the stoichiometry N was determined as 4.

As to “maize nonC4-NADP-malic enzyme, recombinant wild type”, the stoichiometry N in data set [3] is 2 and 4; in [4], 2; in data set [5], 2; in data set [6], 4. In addition, in [4], the percent tetramers is 10%.

Consider “nonC4I148F mutant of maize nonC4-NADP-ME (enzyme)”, for which, in data set [7], the stoichiometry N was 2.

For “nonC4N172D mutant of maize nonC4-NADP-ME (enzyme)”, the stoichiometry N in data set [8] is 4. “nonC4R208G mutant of maize nonC4-NADP-ME (enzyme)”: in data set [9], the stoichiometry N stood at 4.

For nonC4Δ15 with I148F (enzyme), the stoichiometry N in data set [10] is 4 and 2. Take nonC4Δ15 with N172D (enzyme): in data set [11], the stoichiometry N stood at 4.

On to nonC4Δ15 with R171T (enzyme), for which the stoichiometry N in [12] was 4 and 2. For the molecule nonC4Δ15 with R208G (enzyme), the stoichiometry N in data set [13] was determined as 4.

B1: maize C4-NADP-malic enzyme, recombinant wild type (enzyme, maize (Zea mays), UniProt P16243 63-636, looked up)
chain: MVSNAETETEKEQEEAAAASEELPVMPWATSVASGYTLLRDPHHNKGLAFTEEERDGHYLRGLLPPAVLSQELQIKKFMNTLRQYQTPLQRYIAMMNLQETDERLFYKLLIDNVVELLPFVYTPTVGEACQKYGSIFGRPQGLYVSLKDKGKVLEVLRNWPHRNIQVICVTDGERILGLGDLGCQGMGIPVGKLALYTALGGVDPSVCLPITIDVGTNNEFLLNDEFYIGLRQKRATGEEYDELIEEFMSAVKQFYGEKVLIQFEDFANHNAFDLLEKYSKSHLVFNDDIQGTASVVLAGLLAALKMVGGTLAEQTYLFLGAGEAGTGIAELIALEISKQTNAPIEECRKKVWLVDSKGLIVDSRKGSLQPFKKPWAHEHEPLKTLYDAVQSIKPTVLIGTSGVGRTFTKEIIEAMSSFNERPIIFSLSNPTSHSECTAEQAYTWSQGRSIFASGSPFAPVEYEGKTFVPGQSNNAYIFPGLGLGLVISGAVRVHEDMLLAASKALADQATQDNFEKGSIFPPFTSIRKISAHIAAAVAGKAYELGLATRLPPPSDLVKYAENCMYTPVYRNYR
notes: C4-NADP-malic enzyme (ZmC4-NADP-ME), plastidic C4 isoform of maize; construct of Alvarez et al. 2019; Vector pET16b::ZmC4-NADP-ME (Alvarez et al. 2019); also called C4-NADP-ME; ZmC4-NADP-ME; source: E. coli Rosetta2 (DE3) or ArcticExpress (DE3), purified (Ni-NTA)
As for B1, the “stoichiometry N” value in data set [14] came out at 4.

B2: C4-NADP-ME from maize extracts (enzyme, UniProt P16243 63-636, looked up)
chain: MVSNAETETEKEQEEAAAASEELPVMPWATSVASGYTLLRDPHHNKGLAFTEEERDGHYLRGLLPPAVLSQELQIKKFMNTLRQYQTPLQRYIAMMNLQETDERLFYKLLIDNVVELLPFVYTPTVGEACQKYGSIFGRPQGLYVSLKDKGKVLEVLRNWPHRNIQVICVTDGERILGLGDLGCQGMGIPVGKLALYTALGGVDPSVCLPITIDVGTNNEFLLNDEFYIGLRQKRATGEEYDELIEEFMSAVKQFYGEKVLIQFEDFANHNAFDLLEKYSKSHLVFNDDIQGTASVVLAGLLAALKMVGGTLAEQTYLFLGAGEAGTGIAELIALEISKQTNAPIEECRKKVWLVDSKGLIVDSRKGSLQPFKKPWAHEHEPLKTLYDAVQSIKPTVLIGTSGVGRTFTKEIIEAMSSFNERPIIFSLSNPTSHSECTAEQAYTWSQGRSIFASGSPFAPVEYEGKTFVPGQSNNAYIFPGLGLGLVISGAVRVHEDMLLAASKALADQATQDNFEKGSIFPPFTSIRKISAHIAAAVAGKAYELGLATRLPPPSDLVKYAENCMYTPVYRNYR
notes: C4-NADP-malic enzyme, plastidic C4 isoform of maize, identified by mass spectrometry in an active band of a native gel; source: endogenous, extracts of maize etiolated leaves and roots
Consider B2, for which the “stoichiometry N” value in data set [15] was 4.
